This is an account of results in IntAct's records for PubMed 10984058.

B1: Myosin-2 (Saccharomyces cerevisiae), P19524 (parent)
chain: MSFEVGTRCWYPHKELGWIGAEVIKNEFNDGKYHLELQLEDDEIVSVDTKDLNNDKDQSLPLLRNPPILEATEDLTSLSYLNEPAVLHAIKQRYSQLNIYTYSGIVLIATNPFDRVDQLYTQDMIQAYAGKRRGELEPHLFAIAEEAYRLMKNDKQNQTIVVSGESGAGKTVSAKYIMRYFASVEEENSATVQHQVEMSETEQKILATNPIMEAFGNAKTTRNDNSSRFGKYLEILFDKDTSIIGARIRTYLLERSRLVYQPPIERNYHIFYQLMAGLPAQTKEELHLTDASDYFYMNQGGDTKINGIDDAKEYKITVDALTLVGITKETQHQIFKILAALLHIGNIEIKKTRNDASLSADEPNLKLACELLGIDAYNFAKWVTKKQIITRSEKIVSNLNYSQALVAKDSVAKFIYSALFDWLVENINTVLCNPAVNDQISSFIGVLDIYGFEHFEKNSFEQFCINYANEKLQQEFNQHVFKLEQEEYVKEEIEWSFIEFNDNQPCIDLIENKLGILSLLDEESRLPAGSDESWTQKLYQTLDKSPTNKVFSKPRFGQTKFIVSHYALDVAYDVEGFIEKNRDTVSDGHLEVLKASTNETLINILEGLEKAAKKLEEAKKLELEQAGSKKPGPIRTVNRKPTLGSMFKQSLIELMNTINSTNVHYIRCIKPNADKEAWQFDNLMVLSQLRACGVLETIRISCAGFPSRWTFEEFVLRYYILIPHEQWDLIFKKKETTEEDIISVVKMILDATVKDKSKYQIGNTKIFFKAGMLAYLEKLRSNKMHNSIVMIQKKIRAKYYRKQYLQISQAIKYLQNNIKGFIIRQRVNDEMKVNCATLLQAAYRGHSIRANVFSVLRTITNLQKKIRKELKQRQLKQEHEYNAAVTIQSKVRTFEPRSRFLRTKKDTVVVQSLIRRRAAQRKLKQLKADAKSVNHLKEVSYKLENKVIELTQNLASKVKENKEMTERIKELQVQVEESAKLQETLENMKKEHLIDIDNQKSKDMELQKTIENNLQSTEQTLKDAQLELEDMVKQHDELKEESKKQLEELEQTKKTLVEYQTLNGDLQNEVKSLKEEIARLQTAMSLGTVTTSVLPQTPLKDVMGGGASNFNNMMLENSDLSPNDLNLKSRSTPSSGNNHIDSLSVDRENGVNATQINEELYRLLEDTEILNQEITEGLLKGFEVPDAGVAIQLSKRDVVYPARILIIVLSEMWRFGLTKQSESFLAQVLTTIQKVVTQLKGNDLIPSGVFWLANVRELYSFVVFALNSILTEETFKNGMTDEEYKEYVSLVTELKDDFEALSYNIYNIWLKKLQKQLQKKAINAVVISESLPGFSAGETSGFLNKIFANTEEYTMDDILTFFNSIYWCMKSFHIENEVFHAVVTTLLNYVDAICFNELIMKRNFLSWKRGLQLNYNVTRLEEWCKTHGLTDGTECLQHLIQTAKLLQVRKYTIEDIDILRGICYSLTPAQLQKLISQYQVADYESPIPQEILRYVADIVKKEAALSSSGNDSKGHEHSSSIFITPETGPFTDPFSLIKTRKFDQVEAYIPAWLSLPSTKRIVDLVAQQVVQDGH
partner: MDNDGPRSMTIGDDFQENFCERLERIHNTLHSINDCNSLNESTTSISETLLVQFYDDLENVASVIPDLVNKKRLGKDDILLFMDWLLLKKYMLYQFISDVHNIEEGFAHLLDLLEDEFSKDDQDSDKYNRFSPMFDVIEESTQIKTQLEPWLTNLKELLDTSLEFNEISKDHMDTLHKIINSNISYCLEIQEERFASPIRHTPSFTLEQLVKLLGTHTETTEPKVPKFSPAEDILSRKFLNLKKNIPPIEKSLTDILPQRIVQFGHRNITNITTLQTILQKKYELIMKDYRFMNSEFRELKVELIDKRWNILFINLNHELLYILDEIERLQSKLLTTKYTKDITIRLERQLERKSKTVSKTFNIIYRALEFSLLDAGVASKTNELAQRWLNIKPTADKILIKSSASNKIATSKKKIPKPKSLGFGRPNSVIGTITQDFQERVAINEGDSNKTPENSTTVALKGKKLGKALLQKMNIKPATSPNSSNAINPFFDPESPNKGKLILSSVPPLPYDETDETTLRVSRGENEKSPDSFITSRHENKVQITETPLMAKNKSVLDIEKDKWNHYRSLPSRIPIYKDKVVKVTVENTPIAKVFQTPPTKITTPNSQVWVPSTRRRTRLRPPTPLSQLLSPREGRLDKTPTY

The variants in the assay derive from B1. The conditions noted are these: with kar9_yeast KAR9, P32526.
E1168K;N1254D: the “effect of a mutation on the interaction” value was “disrupting interaction strength”.

With Y1161F;N1171Y;L1413S;I1453V;I1498M, the “effect of a mutation on the interaction” value is reported as “disrupting interaction strength”.
